“Also recorded” adds a separate entry of the source.
How the values were obtained:
CCL5/RANTES = assay: Plasma cytokine/chemokine panel in critical COVID-19 patients, CCL5/RANTES; assay type: in vivo, human
Source text: (§1) To determine the extent and phenotype of “cytokine storm” cytokines and chemokines in critical COVID-19, a panel of 38 cytokines/chemokines was quantified in plasma from the ten critical COVID-19 patients at Day 0, Day 3 and Day 7 post-leronlimab therapy.

[1] = tested on: critically ill patients with COVID-19; assay: Clinical outcome of critically ill COVID-19 patients given leronlimab; assay type: in vivo, human; settings: by Day 14, 10 critically ill COVID-19 patients
IL-6 = assay: Plasma cytokine/chemokine panel in critical COVID-19 patients, IL-6; assay type: in vivo, human; settings: Day 7 post-leronlimab vs Day 0, critical COVID-19 patients
Source text: as §1

CCR5 = CCR5 (Homo sapiens, UniProt P51681); settings: day 7, all ten critical COVID-19 patients, 700 mg leronlimab
Sequence of CCR5 (P51681 whole entry): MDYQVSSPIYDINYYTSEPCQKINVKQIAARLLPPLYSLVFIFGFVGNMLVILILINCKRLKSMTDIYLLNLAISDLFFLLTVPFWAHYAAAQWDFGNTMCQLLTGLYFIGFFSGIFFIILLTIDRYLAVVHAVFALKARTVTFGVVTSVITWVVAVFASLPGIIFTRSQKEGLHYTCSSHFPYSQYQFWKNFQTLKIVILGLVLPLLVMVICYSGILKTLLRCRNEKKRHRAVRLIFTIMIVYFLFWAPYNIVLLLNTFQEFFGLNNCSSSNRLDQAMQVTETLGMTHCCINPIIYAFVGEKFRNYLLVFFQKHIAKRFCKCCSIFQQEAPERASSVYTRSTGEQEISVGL

[2] = tested on: CD8 and CD4 T-cells (PD-1, LAG-3, cleaved caspase 3); assay: Immunophenotyping / high parameter flow cytometry of T-cells and exhaustion markers in critical COVID-19 patients; assay type: in vivo, human; settings: for exhaustion markers (PD-1, LAG-3, cleaved caspase 3) on CD8 and CD4 T-cells: after 700 mg leronlimab, all ten patients

B1: leronlimab: a humanized monoclonal antibody directed against CCR5 (antibody, chains of the INN, looked up, V domains shown)
VH: EVQLVESGGGLVKPGGSLRLSCAASGYTFSNYWIGWVRQAPGKGLEWIGDIYPGGNYIRNNEKFKDKTTLSADTSKNTAYLQMNSLKTEDTAVYYCGSSFGSNYVFAWFTYWGQGTLVTVSS
VL: DIVMTQSPLSLPVTPGEPASISCRSSQRLLSSYGHTYLHWYLQKPGQSPQLLIYEVSNRFSGVPDRFSGSGSGTDFTLKISRVEAEDVGVYYCSQSTHVPLTFGQGTKVEIK
In the case of B1, the “plasma CCL5/RANTES level change” value (CCL5/RANTES; Day 7 post-leronlimab, critical COVID-19 patients) is reported as “remained high; also recorded: did not drop as abruptly”, the “plasma CCL5/RANTES level change” value (CCL5/RANTES; Day 14, patients where data was available) is reported as “initiation of a drop” and the “patients extubated and released” value [1] is reported as 4. For the same molecule, the patients surviving [1] was “six out of 10”, the “plasma IL-6 level change” value (IL-6) was “reduces IL-6; also recorded: significantly decreased; also recorded: dropped dramatically” and the “blockade of CCR5 as determined by receptor occupancy” value (CCR5) was about 100%. The “exhaustion markers (PD-1, LAG-3, cleaved caspase 3) on CD8 and CD4 T-cells” value [2] was “improvement in exhaustion markers”, the “exhaustion markers (PD-1, LAG-3, cleaved caspase 3) on CD8 and CD4 T-cells” value ([2]; listed as Leronlimab) was “improvements in exhaustion markers” and the “immune restoration including T-cell numbers” value ([2]; all patients) was “immune restoration”. The “T-cell level and CD4/CD8 ratio” value ([2]; as little as 3 days post-therapy) was “begins to restore T-cell level and correct the gross alteration of CD4/CD8 ratio”, the “immune profile compared to normal control blood” value ([2]; by Day 7 after 700 mg leronlimab) was “resembled the normal control blood” and the “expression of PD-1 and LAG3 on T-cells” value ([2]; following 7 days of leronlimab, compared to Day 0) was “significantly decreases”.

Reference: patent publication US11952373B2, “Method of treating hypercytokinemia by administering the CCR5/CCL5 (RANTES) interaction inhibitor maraviroc” (priority 2020, dated 2024)
